Measurements reported in the RNAGym collection of RNA variant scans (doi:10.7554/elife.90254).

B1: LINE1-full (parent)
chain: UACGUAGGUGGUUUUCCCCUGAUAGUGCUAAGGGGGCCUGGAAGUUUGGACUGGGCAGAGCUCAACACAGCGUGGCAAAGUGGCUGUGGCUAGACUGCCUCUCUGGAUUCCUCGUCACUCAGCAGGGCAUCUCUGAGAGAAAUGCC

Variants of: B1
Assay: self-cleavage, relative activity (ratio to wild type); higher = more cleavage; in vitro, sequencing; the parent is a self-cleaving ribozyme
U14C C18A gave a self-cleavage of 1.24. Work on U14C C19U yielded a self-cleavage of 0.83. U14C C38U showed a self-cleavage of 1.09. Variant U14C C51G has a self-cleavage of 1.84. For U14C C51U, the self-cleavage was 0.71. Variant U14C C61G has a self-cleavage of 0.1. In the case of U14C C68A, the self-cleavage is reported as 0.09. In the case of U14C C68U, the self-cleavage is reported as 0.32. In the case of U14C C76U, the self-cleavage is reported as 1.23. U14C C90U showed a self-cleavage of 0.01. Work on U14C C99A yielded a self-cleavage of 0.86. U14C C110A showed a self-cleavage of 1.33. Variant U14C C110U has a self-cleavage of 1.39. With U14C C113A the self-cleavage was 1.19. For U14C C113U, the self-cleavage was 0.82. Variant U14C C123U has a self-cleavage of 1.05. Variant U14C C128U has a self-cleavage of 0.2. For U14C C131A, the self-cleavage was 1.15. U14C C145A showed a self-cleavage of 1.28. With U14C C145G the self-cleavage was 0.63. U14C C145U gave a self-cleavage of 1.41. In the case of U14C C146U, the self-cleavage is reported as 1.32. U14C G25C showed a self-cleavage of 0.5. For U14C G25U, the self-cleavage was 1.26. U14C G32C gave a self-cleavage of 1.58. In the case of U14C G32U, the self-cleavage is reported as 1.03. U14C G34A showed a self-cleavage of 0.92. In the case of U14C G34U, the self-cleavage is reported as 0.45. Work on U14C G36A yielded a self-cleavage of 1.55. U14C G36U showed a self-cleavage of 1.31. Variant U14C G41U has a self-cleavage of 0.71. For U14C G48A, the self-cleavage was 1.12. U14C G54A showed a self-cleavage of 0.71. U14C G55C showed a self-cleavage of 0.09. Work on U14C G58A yielded a self-cleavage of 0.06. For U14C G58C, the self-cleavage was 0.08. With U14C G58U the self-cleavage was 0.03. U14C G60U gave a self-cleavage of 0.04. Variant U14C G74A has a self-cleavage of 0.96. In the case of U14C G83A, the self-cleavage is reported as 1.07. In the case of U14C G86U, the self-cleavage is reported as 0.08. U14C G88A gave a self-cleavage of 0.09. With U14C G97A the self-cleavage was 0.09. U14C G105A gave a self-cleavage of 1.38. Work on U14C G105U yielded a self-cleavage of 1.11. U14C G127A gave a self-cleavage of 1. With U14C G127U the self-cleavage was 1.73. Variant U14C G139U has a self-cleavage of 1.63. U14C U20C gave a self-cleavage of 1.05. U14C U23A showed a self-cleavage of 1.62. U14C U23C showed a self-cleavage of 1.4. With U14C U23G the self-cleavage was 0.93. Variant U14C U26A has a self-cleavage of 0.95. In the case of U14C U29C, the self-cleavage is reported as 1.4. With U14C U39G the self-cleavage was 0.36. U14C U45C gave a self-cleavage of 1.21. U14C U46A showed a self-cleavage of 1.4. With U14C U46C the self-cleavage was 1.3. Variant U14C U47C has a self-cleavage of 1.56. U14C U47G gave a self-cleavage of 1.4. In the case of U14C U52A, the self-cleavage is reported as 0.85. U14C U73A showed a self-cleavage of 1.31. U14C U73C showed a self-cleavage of 1.62. With U14C U81A the self-cleavage was 1.34. In the case of U14C U85G, the self-cleavage is reported as 0. For U14C U87A, the self-cleavage was 0.15. Work on U14C U87C yielded a self-cleavage of 0.26. With U14C U87G the self-cleavage was 0.31. In the case of U14C U91C, the self-cleavage is reported as 0.79. Variant U14C U91G has a self-cleavage of 0.24. U14C U96A showed a self-cleavage of 0.13. With U14C U100A the self-cleavage was 0.9. U14C U100C showed a self-cleavage of 1.55. U14C U100G gave a self-cleavage of 1.38. Work on U14C U102C yielded a self-cleavage of 1.09. Work on U14C U104C yielded a self-cleavage of 1.51. Variant U14C U108C has a self-cleavage of 1.44. Variant U14C U109C has a self-cleavage of 1.25. Variant U14C U112A has a self-cleavage of 1.17. Variant U14C U112C has a self-cleavage of 1.19. In the case of U14C U115C, the self-cleavage is reported as 1.31. In the case of U14C U119A, the self-cleavage is reported as 1.25. U14C U134G gave a self-cleavage of 1.23. Work on U14G yielded a self-cleavage of 0.82. Variant U14G A42G has a self-cleavage of 1.15. With U14G A42U the self-cleavage was 0.76. U14G A57G gave a self-cleavage of 2.19. With U14G A77G the self-cleavage was 0.57. In the case of U14G A79G, the self-cleavage is reported as 0.42. U14G A107G gave a self-cleavage of 1.28. Work on U14G A136G yielded a self-cleavage of 1.16. Work on U14G A140U yielded a self-cleavage of 0.64. For U14G C18A, the self-cleavage was 1.09. With U14G C38G the self-cleavage was 1.12. U14G C66U gave a self-cleavage of 0.06. Variant U14G C118U has a self-cleavage of 1.84. Work on U14G G36U yielded a self-cleavage of 1.51. U14G U47C gave a self-cleavage of 1.02. In the case of U14G U85C, the self-cleavage is reported as 0.92. U14G U96C gave a self-cleavage of 0. With U14G U102G the self-cleavage was 0.66. Work on U14G U115C yielded a self-cleavage of 0.79. Variant U15A has a self-cleavage of 0.96. Work on U15A A24G yielded a self-cleavage of 0.49. Work on U15A A24U yielded a self-cleavage of 1.12. Work on U15A A30G yielded a self-cleavage of 1.16. Variant U15A A31G has a self-cleavage of 0.55. With U15A A31U the self-cleavage was 1.05. Variant U15A A42G has a self-cleavage of 1.31. U15A A43G showed a self-cleavage of 0.97. Work on U15A A43U yielded a self-cleavage of 0.87. For U15A A50G, the self-cleavage was 0.67. In the case of U15A A50U, the self-cleavage is reported as 1.43. Variant U15A A57G has a self-cleavage of 0.68. Work on U15A A69U yielded a self-cleavage of 0.05. U15A A77G gave a self-cleavage of 0.89. Variant U15A A77U has a self-cleavage of 0.98. Variant U15A A78G has a self-cleavage of 0.99. Work on U15A A79G yielded a self-cleavage of 0. In the case of U15A A94G, the self-cleavage is reported as 0.19. Variant U15A A94U has a self-cleavage of 0.25. With U15A A107G the self-cleavage was 0.81. For U15A A117G, the self-cleavage was 1.24. U15A A121G showed a self-cleavage of 1.15. U15A A129G gave a self-cleavage of 0.65. Variant U15A A136U has a self-cleavage of 0.35. Work on U15A A142G yielded a self-cleavage of 1.13. Variant U15A C90A has a self-cleavage of 0.02. U15A C101G gave a self-cleavage of 0.84. U15A C113U gave a self-cleavage of 0.44. U15A C146U showed a self-cleavage of 0.88. For U15A G21A, the self-cleavage was 1.15. In the case of U15A G32A, the self-cleavage is reported as 0.66. With U15A G33A the self-cleavage was 0.98. Variant U15A G35U has a self-cleavage of 1.16. Variant U15A G40A has a self-cleavage of 1.24. Work on U15A G48C yielded a self-cleavage of 0.71. In the case of U15A G53U, the self-cleavage is reported as 0.72. U15A G58A showed a self-cleavage of 0.09. In the case of U15A G60U, the self-cleavage is reported as 0.07. For U15A G72A, the self-cleavage was 0.92. For U15A G80A, the self-cleavage was 1.16. Work on U15A G114U yielded a self-cleavage of 0.97. Work on U15A G135A yielded a self-cleavage of 0.87. For U15A U20G, the self-cleavage was 0.68. With U15A U26C the self-cleavage was 0.86. Work on U15A U29C yielded a self-cleavage of 2.9. Variant U15A U39G has a self-cleavage of 1.02. Work on U15A U45G yielded a self-cleavage of 0.73. Work on U15A U46G yielded a self-cleavage of 0.85. In the case of U15A U47C, the self-cleavage is reported as 0.9. For U15A U52C, the self-cleavage was 0.9. U15A U52G showed a self-cleavage of 1.23. Variant U15A U62C has a self-cleavage of 0. With U15A U73A the self-cleavage was 1.02. Variant U15A U85C has a self-cleavage of 0.03. With U15A U87G the self-cleavage was 0.2. U15A U91C gave a self-cleavage of 0.44. For U15A U100C, the self-cleavage was 0.91. U15A U102A gave a self-cleavage of 1.05. For U15A U102C, the self-cleavage was 1.15. Variant U15A U104C has a self-cleavage of 1.06. U15A U112A gave a self-cleavage of 1.53. With U15A U112C the self-cleavage was 1.51. In the case of U15A U115C, the self-cleavage is reported as 1.09. Variant U15A U119C has a self-cleavage of 0.19. U15A U130C showed a self-cleavage of 0.67.
